Patent US10947272B2, “BACE1 inhibitor peptides” (HOFFMANN-LA ROCHE INC., priority 2015, dated 2021)
“And” between values parts separate entries of the source, which are not always exact repeats. Identical values can stand only once. Numbered stars: 1 amine (or outer) side, 2 acyl side, 3 side chain; on linkers, the order of the positions; unused ones are H or OH. Square brackets hold non-standard residues; d marks the D form. Primed or numbered codes have the meaning given here. Ends that are not written are not given here. * marks the point of attachment. PEG(4) = non-peptide PEG linker joining two peptide parts; MetSta(3S,4S) = CSCC[C@H](N[*:1])[C@@H](O)CC(=O)[*:2]; Biotin = O=C1N[C@H]2[C@H](CS[C@H]2CCCCC(=O)*)N1; Sta = CC(C)C[C@H](N)[C@@H](O)CC(=O)O; PEG4 = NCCOCCOCCOCCOCCC(=O)O; PEG3 = NCCOCCOCCOCCC(=O)O; PEG8′ = not defined here; AEEA = NCCOCCOCC(=O)O

molecular target: BACE1 (Asp2, β-secretase, Memapsin-2) in HEK293 cells stably expressing human APP695 (UniProt P56817 46-501, limits assumed); assay: cell-based or functional assay
Sequence (P56817 46-501 limits assumed): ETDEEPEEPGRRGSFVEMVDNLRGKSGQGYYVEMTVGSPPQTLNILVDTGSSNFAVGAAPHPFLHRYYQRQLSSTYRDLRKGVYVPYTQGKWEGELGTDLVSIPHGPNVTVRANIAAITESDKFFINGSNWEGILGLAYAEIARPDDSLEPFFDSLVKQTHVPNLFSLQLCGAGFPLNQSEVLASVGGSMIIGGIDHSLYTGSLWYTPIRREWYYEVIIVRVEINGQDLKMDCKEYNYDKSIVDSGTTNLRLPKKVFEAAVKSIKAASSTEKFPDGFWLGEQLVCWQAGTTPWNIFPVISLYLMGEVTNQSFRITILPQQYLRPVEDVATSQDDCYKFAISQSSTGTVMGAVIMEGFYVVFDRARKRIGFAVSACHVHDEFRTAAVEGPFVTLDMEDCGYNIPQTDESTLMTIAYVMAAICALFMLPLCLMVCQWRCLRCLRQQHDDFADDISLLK

Binder	IC 50, cellular Aβ-lowering assay (Aβ40 in supernatant of HEK293 cells expressing human APP695)
H-YPYF[dK]PL[PEG4]EVN[Sta]VAE[dP]-NH2 (numbers in words are those of the source; also: TFA salt (2 TFA)) [H-Tyr-Pro-Tyr-Phe-DLys-Pro-Leu-PEG(4)-Glu-Val-Asn-Sta-Val-Ala-Glu-DPro-NH2 × 2TFA]	> 40000 nM
YPYFIP[dK][PEG(4)]EVN[MetSta(3S,4S)]VAE[dP]-NH2 (numbers in words are those of the source; also: TFA salt (2 TFA)) [Tyr-Pro-Tyr-Phe-Ile-Pro-DLys-PEG(4)-Glu-Val-Asn-MetSta-Val-Ala-Glu-DPro-NH2 × 2TFA]	1010 nM
YPYFIP[dK]G[dK]GEVN[MetSta(3S,4S)]VAE[dF]-NH2 (also: TFA salt (3 TFA)) [Tyr-Pro-Tyr-Phe-Ile-Pro-DLys-Gly-DLys-Gly-Glu-Val-Asn-MetSta-Val-Ala-Glu-DPhe-NH2 × 3TFA]	190 nM
YPKFISAG[dK]GEVN[Sta]VAE[dP]-NH2 (also: 3TFA salt) [YPKFISA-GkG-EVN-Sta-VAEp-NH2 × 3TFA]	750 nM
YPYFI[dK]LG[dK]GEVN[Sta]VAE[dP]-NH2 (also: TFA salt (3 TFA)) [Tyr-Pro-Tyr-Phe-Ile-DLys-Leu-Gly-DLys-Gly-Glu-Val-Asn-Sta-Val-Ala-Glu-DPro-NH2 × 3TFA]	> 40000 nM
H-Y[dK]YFIPLG[dK]GEVN[Sta]VAE[dP]-NH2 (also: TFA salt) [H-Tyr-DLys-Tyr-Phe-Ile-Pro-Leu-Gly-DLys-Gly-Glu-Val-Asn-Sta-Val-Ala-Glu-DPro-NH2]	> 40000 nM
YPYFIP[dK]G[dK]GEVN[MetSta(3S,4S)]VAEP-NH2 (also: TFA salt (3 TFA)) [Tyr-Pro-Tyr-Phe-Ile-Pro-DLys-Gly-DLys-Gly-Glu-Val-Asn-MetSta-Val-Ala-Glu-Pro-NH2 × 3TFA]	15 nM
{Biotin-AEEA}-C[PEG8′]YPYFIP[dK]G[dK]GEVN[Sta]VAE[dP]-NH2 (also: TFA salt) [Biotin-PEG2-Cys-PEG8-Tyr-Pro-Tyr-Phe-Ile-Pro-DLys-Gly-DLys-Gly-Glu-Val-Asn-Sta-Val-Ala-Glu-DPro-NH2]	18 nM
H-YPKFIPL[PEG4]EVN[Sta]VAE[dP]-NH2 (numbers in words are those of the source; also: 3TFA salt) [1 H-Tyr-Pro-Lys-Phe-Ile-Pro-Leu-PEG(4)-Glu-Val-Asn-Sta-Val-Ala-Glu-DPro-NH2 × 3TFA]	52 nM
TPKPAQGG[dK]GEVN[Sta]VAE[dP]-NH2 (also: TFA salt (3 TFA)) [TPKPAQG-GkG-EVN-Sta-VAEp-NH2 × 3TFA]	> 40000 nM
GARFIPAG[dK]GEVN[Sta]VAE[dP]-NH2 (also: TFA salt (3 TFA)) [Gly-Ala-Arg-Phe-Ile-Pro-Ala-Gly-DLys-Gly-Glu-Val-Asn-Sta-Val-Ala-Glu-DPro-NH2 × 3TFA]	420 nM
H-YPYFIP[dK][PEG4]EVN[Sta]VAE[dP]-NH2 (numbers in words are those of the source; also: TFA salt (2 TFA)) [H-Tyr-Pro-Tyr-Phe-Ile-Pro-DLys-PEG(4)-Glu-Val-Asn-Sta-Val-Ala-Glu-DPro-NH2 × 2TFA]	45 nM
YPYF[dK]LG[dK]GEVNLAAE[dP]-NH2 (also: Leu13-Ala14 hydroxyethylene dipeptide isostere (Leu*Ala) in place of the amide bond, 3TFA salt) [Tyr-Pro-Tyr-Phe-DLys-Leu-Gly-DLys-Gly-Glu-Val-Asn-Leu*Ala-Ala-Glu-DPro-NH2 × 3TFA]	34 nM
[dK]PYFIPLG[dK]GEVN[Sta]VAE[dP]-NH2 (also: TFA salt (3 TFA)) [DLys-Pro-Tyr-Phe-Ile-Pro-Leu-Gly-DLys-Gly-Glu-Val-Asn-Sta-Val-Ala-Glu-DPro-NH2 × 3TFA]	2930 nM
YPKFIPLG[dK]GEVN[MetSta(3S,4S)]VAEP-NH2 (also: TFA salt (3 TFA)) [Tyr-Pro-Lys-Phe-Ile-Pro-Leu-Gly-DLys-Gly-Glu-Val-Asn-MetSta-Val-Ala-Glu-Pro-NH2 × 3TFA]	760 nM
YPYFIPLG[dK]GEVN[Sta]VAE[dP]-NH2 (also: 2TFA salt) [Tyr-Pro-Tyr-Phe-Ile-Pro-Leu-Gly-DLys-Gly-Glu-Val-Asn-Sta-Val-Ala-Glu-DPro-NH2 × 2TFA]	94 nM
YPYFKPAG[dK]GEVN[Sta]VAE[dP]-NH2 (also: 3TFA salt) [Tyr-Pro-Tyr-Phe-Lys-Pro-Ala-Gly-DLys-Gly-Glu-Val-Asn-Sta-Val-Ala-Glu-DPro-NH2 × 3TFA]	71 nM and 46 nM
H-YP[dK]FIPLG[dK]GEVN[Sta]VAE[dP]-NH2 (also: TFA salt) [H-Tyr-Pro-DLys-Phe-Ile-Pro-Leu-Gly-DLys-Gly-Glu-Val-Asn-Sta-Val-Ala-Glu-DPro-NH2]	29300 nM
YPYFIPLG[dK]GEVN[MetSta(3S,4S)]VAEP-NH2 (also: 2TFA salt) [Tyr-Pro-Tyr-Phe-Ile-Pro-Leu-Gly-DLys-Gly-Glu-Val-Asn-MetSta-Val-Ala-Glu-Pro-NH2 × 2TFA]	470 nM
H-[dY]PYFIPLG[dK]GEVN[Sta]VAE[dP]-NH2 (also: TFA salt (2 TFA)) [H-DTyr-Pro-Tyr-Phe-Ile-Pro-Leu-Gly-DLys-Gly-Glu-Val-Asn-Sta-Val-Ala-Glu-DPro-NH2 × 2TFA]	810 nM
H-GGGYPYFIP[dK]G[dK]GEVN[Sta]VAE[dP]-NH2 (also: TFA salt) [H-Gly-Gly-Gly-Tyr-Pro-Tyr-Phe-Ile-Pro-DLys-Gly-DLys-Gly-Glu-Val-Asn-Sta-Val-Ala-Glu-DPro-NH2 × 3TFA]	6.4 nM
Ac-[dY]PYFIPLG[dK]GEVN[Sta]VAE[dP]-NH2 (also: TFA salt) [Ac-DTyr-Pro-Tyr-Phe-Ile-Pro-Leu-Gly-DLys-Gly-Glu-Val-Asn-Sta-Val-Ala-Glu-DPro-NH2 × TFA]	110 nM
YPYFIP[dK][PEG(4)]EVNLAAE[dP]-NH2 (numbers in words are those of the source; also: Leu11-Ala12 as Leu*Ala hydroxyethylene dipeptide isostere, 2TFA salt) [Tyr-Pro-Tyr-Phe-Ile-Pro-DLys-PEG(4)-Glu-Val-Asn-Leu*Ala-Ala-Glu-DPro-NH2 × 2TFA]	15 nM
YPYFIPLGGGEVN[Sta]VAE[dP]-NH2 (also: TFA salt) [Tyr-Pro-Tyr-Phe-Ile-Pro-Leu-Gly-Gly-Gly-Glu-Val-Asn-Sta-Val-Ala-Glu-DPro-NH2 × TFA]	420 nM
YPYFIPL[PEG4]EVN[Sta]VAE[dP]-NH2 (also: TFA salt) [Tyr-Pro-Tyr-Phe-Ile-Pro-Leu-PEG(4)-Glu-Val-Asn-Sta-Val-Ala-Glu-DPro-NH2 × TFA]	2.7 nM
H-YPYF[dK]L[PEG4]EVN[Sta]VAE[dP]-NH2 (also: TFA salt) [H-Tyr-Pro-Tyr-Phe-DLys-Leu-PEG(4)-Glu-Val-Asn-Sta-Val-Ala-Glu-DPro-NH2 × 3TFA]	> 40000 nM
YPYF[dK]PLG[dK]GEVN[Sta]VAE[dP]-NH2 (also: TFA salt (3 TFA)) [Tyr-Pro-Tyr-Phe-DLys-Pro-Leu-Gly-DLys-Gly-Glu-Val-Asn-Sta-Val-Ala-Glu-DPro-NH2 × 3TFA]	> 40000 nM
H-[dY]PYFIP[dK]G[dK]GEVN[Sta]VAE[dP]-NH2 (also: TFA salt (3 TFA)) [H-DTyr-Pro-Tyr-Phe-Ile-Pro-DLys-Gly-DLys-Gly-Glu-Val-Asn-Sta-Val-Ala-Glu-DPro-NH2 × 3TFA]	63 nM
{Biotin-AEEA}-C[PEG3]YPYFIP[dK]G[dK]GEVN[Sta]VAE[dP]-NH2 (also: TFA salt) [Biotin-PEG2-Cys-PEG3-Tyr-Pro-Tyr-Phe-Ile-Pro-DLys-Gly-DLys-Gly-Glu-Val-Asn-Sta-Val-Ala-Glu-DPro-NH2]	26 nM
